# Reference: US20250043302A1, “MUTATED HYDROXYPHENYLPYRUVATE DIOXYGENASE POLYPEPTIDE, AND CODING GENE AND USE THEREOF” (BEIJING DABEINONG BIOTECHNOLOGY CO., LTD., priority 2021, published 2025)
# B1: SbHPPDm-F372A-02: nucleotide sequence encoding Sorghum bicolor HPPD with F372A; vector DBN11759 (nucleic acid)
# DNA: ATGCCGCCCACTCCAACAACTGCTGCTGCGACGGGAGCAGCTGTCGCCGCTGCTTCTGCTGAGCAGGCTGCCTTCAGGCTCGTCGGGCACAGAAATTTTGTTCGTGTAAATCCAAGGAGTGATAGGTTCCACACCTTGGCTTTTCACCACGTGGAGTTGTGGTGTGCTGATGCAGCCTCGGCAGCGGGGCGCTTCTCGTTTGGTCTCGGTGCTCCGCTCGCCGCAAGATCTGATCTTAGCACTGGAAACACAGCGCATGCCTCCCTGCTCCTGCGCTCTGGCGCGCTGGCGTTCCTCTTCACGGCGCCATATGCTCACGGCGCCGACGCCGCCACCGCGTCATTGCCGTCTTTTAGTGCAGCCGAAGCAAGAAGATTTGCAGCAGACCACGGCCTCGCCGTAAGGGCCGTGGCCTTACGTGTCGCCGATGCCGAAGATGCTTTCCGCGCCTCTGTAGCAGCTGGAGCAAGGCCAGCATTTGAACCTGTTGAATTGGGGTTAGGATTCCGTCTTGCAGAAGTTGAGCTTTATGGCGACGTTGTTTTGAGATACGTTTCATATCCTGATGACGCTGACGCTAGCTTCTTGCCTGGTTTTGTGGGGGTGACATCACCTGGGGCAGCAGATTATGGTCTCAGGCGGTTTGATCATATTGTTGGAAACGTTCCTGAACTCGCGCCGGCGGCAGCCTACTTCGCCGGTTTCACTGGGTTTCATGAATTTGCTGAATTCACAGCCGAGGATGTCGGCACCACCGAGAGTGGACTGAACTCCATGGTGCTGGCCAACAATGCAGAGAATGTCCTTCTTCCCTTGAATGAACCAGTTCATGGAACAAAAAGGCGTTCCCAAATACAAACATACCTCGACCATCATGGTGGACCAGGCGTTCAGCATATGGCTCTCGCTAGTGACGATGTTCTACGAACCCTGCGAGAGATGCAGGCGCGGTCTGCAATGGGAGGATTTGAGTTCATGGCACCTCCTGCCCCTGAATATTATGATGGTGTTCGGAGAAGGGCAGGTGATGTGCTAACTGAAGCTCAAATCAAGGAGTGCCAGGAGCTTGGCGTGCTGGTCGATCGGGATGATCAAGGTGTGCTTCTGCAGATTGCCACTAAACCAGTGGGTGACCGCCCCACGCTGTTCCTAGAGATCATCCAGAGAATAGGGTGCATGGAGAAGGACGAAAAAGGACAAGAGTACCAGAAGGGAGGTTGTGGCGGCTTTGGAAAAGGGAACTTCTCCCAATTATTCAAGTCAATTGAAGACTATGAAAAGAGTTTGGAGGCTAAGCAAGCTGCAGCCGCCCAGGGCAGCTGA
# modifications: SbHPPDm-F372A-02 Nucleotide Sequence
# notes: vector DBN11759
# Assays:
# Assay type in all cases: in vivo
# [1] = tested on: Arabidopsis thaliana T1 plants; experiment: Topramezone tolerance of transgenic Arabidopsis thaliana T1 plants (spray, bleached leaf area grade, damage score); details: 7 DAT, Table 4; for Classification and statistics of the grade of pesticide damage: Grade 0 / Classification and statistics of the grade of pesticide damage: Grade 1 / Classification and statistics of the grade of pesticide damage: Grade 2 / Classification and statistics of the grade of pesticide damage: Grade 3: number of plants; for Scores: pesticide damage score 0-100
# In short: (§1)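 Damage graded 0–3 from the proportion of bleached leaf area 7 days after spraying. Plants were glufosinate-selected T1 lines, 18 days after sowing, plus vector and wild-type controls. Rates: mesotrione 52.5–420, isoxaflutole 35–280, topramezone 25–200 g ai/ha, with water (0×).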
# [2] = tested on: soybean T1 plants; experiment: Topramezone tolerance of transgenic soybean T1 plants; details: different concentrations
# Description: T1 transformants were initially selected from the untransformed seeds using a glufosinate selection scheme. […] The degree of damage caused by the herbicide was measured for each plant according to the proportion of bleached leaf area (the proportion of bleached leaf area=bleached leaf area/total leaf area×100%) 7 days after spraying (7 DAT): the case where there is basically no bleached phenotype is defined as grade 0, the case where the proportion of bleached leaf area is less than 50% is defined as grade 1, the case where the proportion of bleached leaf area is more than 50% is defined as grade 2, and the case where the proportion of bleached leaf area is 100% grade is defined as grade 3.
# The soybean T1 plants into which the SbHPPD-02 nucleotide sequence was introduced, soybean T1 plants into which the SbHPPDm-F372A-02 nucleotide sequence was introduced, soybean T1 plants into which the SbHPPDm-F383W-02 nucleotide sequence was introduced, soybean T1 plants into which the SbHPPDm-F372A-F383W-02 nucleotide sequence was introduced, soybean T1 plants into which the control vector DBN11726N nucleotide sequence was introduced, and wild-type soybean plants (V3-V4 at seedling stage) were sprayed with topramezone at three different concentrations (i.e., 25 g ai/ha (one-fold field concentration, 1×). […] According to the method in point 6 of Example 1, after 7 days of spraying (7 DAT), the damage degree of each plant by the herbicide was statistically analyzed, and the scoring and resistance evaluation were carried out accordingly. […]
# [3] = tested on: soybean T1 plants; experiment: Isoxaflutole tolerance of transgenic soybean T1 plants; details: different concentrations
# [4] = tested on: soybean T1 plants; experiment: Mesotrione tolerance of transgenic soybean T1 plants; details: different concentrations
# [5] = tested on: Arabidopsis thaliana T1 plants; experiment: Isoxaflutole tolerance of transgenic Arabidopsis thaliana T1 plants (spray, bleached leaf area grade, damage score); design: Scores (pesticide damage): scale not given here; details: spray, Arabidopsis thaliana T1 plants; for Classification and statistics of the grade of pesticide damage: Grade 0 (number of plants) / Classification and statistics of the grade of pesticide damage: Grade 1 (number of plants) / Classification and statistics of the grade of pesticide damage: Grade 2 (number of plants) / Classification and statistics of the grade of pesticide damage: Grade 3 (number of plants): 16 plants
# In short: as §1
# [6] = tested on: Arabidopsis thaliana T1 plants; experiment: Mesotrione tolerance of transgenic Arabidopsis thaliana T1 plants (spray, bleached leaf area grade, damage score); design: Scores: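 damage score 0-100 computed as Σ(N×S)/(T×M)×100 over grades 0-3 with higher meaning more damage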; details: Arabidopsis thaliana T1 plants; for Grade 0 (classification and statistics of the grade of pesticide damage; number of plants) / Grade 1 (classification and statistics of the grade of pesticide damage; number of plants) / Grade 2 (classification and statistics of the grade of pesticide damage; number of plants) / Grade 3 (classification and statistics of the grade of pesticide damage; number of plants): 16 plants
# In short: as §1
# [7] = isoxaflutole 35 g ai/ha (0.5x field concentration)
# [8] = isoxaflutole 70 g ai/ha (1x field concentration)
molecule,measurement,setting,value
B1,Classification and statistics of the grade of pesticide damage: Grade 0,[1]; topramezone 25 g ai/ha (1×),16
same,Classification and statistics of the grade of pesticide damage: Grade 1,[1]; topramezone 25 g ai/ha (1×),0
same,Classification and statistics of the grade of pesticide damage: Grade 2,[1]; topramezone 25 g ai/ha (1×),0
same,Classification and statistics of the grade of pesticide damage: Grade 3,[1]; topramezone 25 g ai/ha (1×),0
same,Classification and statistics of the grade of pesticide damage: Grade 0,[1]; topramezone 100 g ai/ha (4×),4
same,Classification and statistics of the grade of pesticide damage: Grade 1,[1]; topramezone 100 g ai/ha (4×),4
same,Classification and statistics of the grade of pesticide damage: Grade 2,[1]; topramezone 100 g ai/ha (4×),8
same,Classification and statistics of the grade of pesticide damage: Grade 3,[1]; topramezone 100 g ai/ha (4×),0
same,Scores,[1]; topramezone 25 g ai/ha (1×),0
same,Scores,[1]; topramezone 100 g ai/ha (4×),42
same,Resistance evaluation,[1]; topramezone 25 g ai/ha (1×),highly
same,Resistance evaluation,[1]; topramezone 100 g ai/ha (4×),poorly
same,tolerance to HPPD-inhibitor herbicides (in words): topramezone,[2],different degrees of tolerance
same,tolerance to HPPD-inhibitor herbicides (in words): isoxaflutole,[3],different degrees of tolerance
same,tolerance to HPPD-inhibitor herbicides (in words): mesotrione,[4],different degrees of tolerance
same,Resistance evaluation,[5]; [7],Poorly
same,Scores (pesticide damage),[5]; [7],67
same,Classification and statistics of the grade of pesticide damage: Grade 0 (number of plants),[5]; [7],0
same,Classification and statistics of the grade of pesticide damage: Grade 1 (number of plants),[5]; [7],2
same,Classification and statistics of the grade of pesticide damage: Grade 2 (number of plants),[5]; [7],12
same,Classification and statistics of the grade of pesticide damage: Grade 3 (number of plants),[5]; [7],2
same,Resistance evaluation,[5]; [8],Non-resistant
same,Scores (pesticide damage),[5]; [8],100
same,Classification and statistics of the grade of pesticide damage: Grade 0 (number of plants),[5]; [8],0
same,Classification and statistics of the grade of pesticide damage: Grade 1 (number of plants),[5]; [8],0
same,Classification and statistics of the grade of pesticide damage: Grade 2 (number of plants),[5]; [8],0
same,Classification and statistics of the grade of pesticide damage: Grade 3 (number of plants),[5]; [8],16
same,Resistance evaluation,[6]; mesotrione 52.5 g ai/ha,Poorly resistant
same,Scores,[6]; mesotrione 52.5 g ai/ha,60
same,Grade 0 (classification and statistics of the grade of pesticide damage; number of plants),[6]; mesotrione 52.5 g ai/ha,0
same,Grade 1 (classification and statistics of the grade of pesticide damage; number of plants),[6]; mesotrione 52.5 g ai/ha,6
same,Grade 2 (classification and statistics of the grade of pesticide damage; number of plants),[6]; mesotrione 52.5 g ai/ha,7
same,Grade 3 (classification and statistics of the grade of pesticide damage; number of plants),[6]; mesotrione 52.5 g ai/ha,3
same,Resistance evaluation,[6]; mesotrione 105 g ai/ha,Non-resistant
same,Scores,[6]; mesotrione 105 g ai/ha,100
same,Grade 0 (classification and statistics of the grade of pesticide damage; number of plants),[6]; mesotrione 105 g ai/ha,0
same,Grade 1 (classification and statistics of the grade of pesticide damage; number of plants),[6]; mesotrione 105 g ai/ha,0
same,Grade 2 (classification and statistics of the grade of pesticide damage; number of plants),[6]; mesotrione 105 g ai/ha,0
same,Grade 3 (classification and statistics of the grade of pesticide damage; number of plants),[6]; mesotrione 105 g ai/ha,16
